In PMC6160764 (Theranostics, 2018):

B1: anti-HER3 scFv (scFv, V domains shown)
VH: not shown
VL: DIQMTQSPSSLSASVGDRVTITCRASQGISNYLAWYQQKPGKAPKLLIYAASSLQSGVPSRFSGSRSGTDFTLTISSLQPEDFATYYCQQYGWLPLTFGQGTKVEIK
B2: IRDye800CW-labeled anti-HER3 scFv (scFv, V domains shown)
VH: not shown
VL: B1 VL

Target: Recombinant human HER3-Fc chimera protein (Homo sapiens, UniProt P21860)
Assay: BLI

Sequence of Recombinant human HER3-Fc chimera protein (P21860 20-643, change not shown): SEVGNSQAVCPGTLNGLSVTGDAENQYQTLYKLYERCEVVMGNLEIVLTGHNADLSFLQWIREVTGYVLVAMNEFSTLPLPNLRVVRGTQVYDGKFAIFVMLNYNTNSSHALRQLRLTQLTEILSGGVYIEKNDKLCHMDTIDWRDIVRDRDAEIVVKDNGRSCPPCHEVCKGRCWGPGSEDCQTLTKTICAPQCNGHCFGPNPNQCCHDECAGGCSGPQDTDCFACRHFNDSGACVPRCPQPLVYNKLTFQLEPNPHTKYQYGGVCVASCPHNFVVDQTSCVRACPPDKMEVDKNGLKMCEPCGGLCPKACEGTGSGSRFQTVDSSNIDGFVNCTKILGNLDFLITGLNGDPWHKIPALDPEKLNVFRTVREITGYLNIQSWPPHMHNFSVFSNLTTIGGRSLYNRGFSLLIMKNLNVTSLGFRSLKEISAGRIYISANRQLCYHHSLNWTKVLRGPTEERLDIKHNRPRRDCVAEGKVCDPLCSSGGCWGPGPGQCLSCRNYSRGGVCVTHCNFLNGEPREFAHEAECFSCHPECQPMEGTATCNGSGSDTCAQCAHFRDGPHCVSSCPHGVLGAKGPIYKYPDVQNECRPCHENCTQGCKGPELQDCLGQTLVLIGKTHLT

| Binder | Kd [nM] |
| --- | --- |
| B1 | 20 ± 1.4 |
| B2 | 29 ± 3.7 |
